Test [1] concerns the target T1, recombinant his-tagged human Cad-11 (R&D Systems) (human, UniProt P55287 54-617).
T1 construct: also called rhCad-11; recombinant human Cad-11; not shown: his tag
T1 sequence: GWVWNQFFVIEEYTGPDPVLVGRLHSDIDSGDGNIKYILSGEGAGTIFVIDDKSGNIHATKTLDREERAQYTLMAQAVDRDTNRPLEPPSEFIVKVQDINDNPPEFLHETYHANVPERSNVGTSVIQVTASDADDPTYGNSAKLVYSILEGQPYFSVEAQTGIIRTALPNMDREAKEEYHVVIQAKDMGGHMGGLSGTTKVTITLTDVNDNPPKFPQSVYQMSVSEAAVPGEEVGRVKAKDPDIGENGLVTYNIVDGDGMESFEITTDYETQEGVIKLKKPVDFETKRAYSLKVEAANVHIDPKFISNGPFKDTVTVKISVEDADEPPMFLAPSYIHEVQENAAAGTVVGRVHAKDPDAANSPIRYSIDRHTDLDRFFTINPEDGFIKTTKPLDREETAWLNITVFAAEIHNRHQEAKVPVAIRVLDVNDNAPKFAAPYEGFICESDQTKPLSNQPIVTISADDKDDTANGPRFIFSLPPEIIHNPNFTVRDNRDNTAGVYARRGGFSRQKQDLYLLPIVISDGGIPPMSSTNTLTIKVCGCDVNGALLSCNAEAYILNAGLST
The test is described as follows: SPR, rhCad-11 immobilized, SDP051 as analyte, 2 state reaction model. As for the experimental part:
(§1) To determine the affinity of SDP051 for recombinant his-tagged human Cad-11, rhCad-11 (R&D Systems) was immobilized to the chip at a single concentration, high resolution kinetics were determined for SDP051, and a 2-state reaction binding model was successfully fitted to the kinetic data.
(§2) Kinetic data were obtained at a flow rate of 40 μL/min to minimize any potential mass transfer effects. An analyte concentration series ranging from 12.5 nM to 0.195 nM was prepared by serial dilution. Two repeats of the blank (no mAb) and the 3.125 nM (first and last cycle) concentration of the analyte were programmed into the kinetic runs in order to check the stability of both the surface and analyte over the kinetic cycles. The SDP051 was injected over the Fcs for 360 seconds, long enough to observe the curvature in association phase.
(§3) As rhCad-11 is homodimeric and therefore contained two identical binding epitopes, it is likely that individual mAb molecules become bound sequentially through a first binding site and then both binding sites.

Test [2] has as its target T1, recombinant his-tagged human Cad-11 …. The test can be described thus: SPR, rhCad-11 immobilized, SDP051 as analyte, 2 state reaction model (kd1). As to the method: as §1, §2, §3
(In general: SPR reads the build-up and loss of mass on a sensor chip optically.)

For test [3], the target named is T2, BSA coupled 37-mer Cad-11 peptide encompassing the Cad-11 immunogen (UniProt P55287 54-90, limits assumed, linked to BSA).
T2 construct: domain: 37-mer peptide encompassing the Cad-11 immunogen; also called Cad-11 antigen; Cad-11 peptide immunogen
T2 peptide (looked up): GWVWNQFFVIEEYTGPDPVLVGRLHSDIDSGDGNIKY
The test is described as follows: ELISA, BSA-coupled 37-mer cadherin peptide coated at 500 ng/ml, antibody titrated, A450. As to the method:
Reactibind plates (ThermoScientific) were coated with 500 ng/ml of the BSA coupled cadherin 37-mer peptide (NE peptide) corresponding to Cadherins-7, -8, -9, -11, -18, -20, and -24 in 0.05% Tween (EMD, product code 9480) in PBS (pH 7.2) (Gibco(Invitrogen), #20012) at 100 μl volume/well for overnight at 4° C. The peptide containing solution was removed from the well and the plate blocked with a 2% bovine serum albumin (BSA) in PBS, 200 μl volume/well, for 2 h at 22° C. The plate was then washed twice with 200 μl/well of PBS-Tween 0.05% at 22° C. and blotted dry. A dilution series from 5 μg/ml to 8 ng/ml in a volume of 100 μl/well of each the humanized anti-Cad-11 antibodies were incubated in the peptide coated wells and incubated at 22° C. for 1 hr. Antibody solution was removed from the wells and the plate washed twice with 200 μl/well of 0.05% Tween-PBS at 22° C. and blotted dry. The goat-anti mouse IgG (Pierce # 31432) was added to each well to plate at a 1:1000 dilution, 100 μl/well and incubate at 22° C. for 30 min. The secondary antibody solution was removed and the plate washed twice with 200 μl/well of 0.05% Tween-PBS at 22° C. and blotted dry. The reaction was developed by adding 100 μl/well tetramethylbenzidine (TMB) reagent IgG (Pierce # 34022, 1 step Turbo TMB-ELISA) to plate and developed at 22° C. for 5 min.

The target of test [4] is T3, Peptide 4 (first 33 amino acids, G1-G33, of the human Cad-11 EC1 domain) (human).
T3 construct: also called PEP4; Peptide 4 immunogen
T3 peptide: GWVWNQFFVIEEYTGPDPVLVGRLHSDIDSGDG
The test can be described thus: ELISA on biotinylated EC1 peptides. As for the experimental part:
The specificity of H1M1 and H14 anti-Cad-11 antibodies was tested further using an ELISA against the first 33 amino acids of the EC1 domains of Cad-11, Cad-7, Cad-8, Cad-20, Cad-24, Cad-9, Cad-18, and MN-Cad. Peptides corresponding to the region of Cad-7, Cad-8, Cad-20, Cad-24, Cad-9, Cad-18, MN-Cad that overlapped with the G1-G33 region of the Cad-11 EC1 domain were synthesized and conjugated to biotin. 100 μl of a 30 ng/ml solution of each of these peptides in PBS-Tween (0.05%) were incubated in each well of a 96-well Netravidin plate for 2-3 hrs at 4° C. and then washed twice with PBS-Tween (0.05%). Various concentrations of the anti-Cad-11 antibody were incubated in each well for 1 hr at 22° C. and then washed twice with PBS-Tween (0.05%). 100 μl of a 1/1000 dilution of a goat anti-mouse IgG secondary antibody were added to each well, incubated for 30 min at 22° C., and then washed twice with PBS-Tween (0.05%). 100 μl/well of room temperature TMB (3,3′,5,5′-tetramethylbenzidine) reagent was added to each well and color was allowed to develop for 5 min at 22° C.
A general note: ELISA stands for enzyme-linked immunosorbent assay.

B1: humanized anti-Cad-11 EC1 antibody SDP051 (Vκ1/VH5) (antibody, IgG4, V domains shown)
VH: EVQLVQSGAEVKKPGASVKVSCKASGYSFTGYFMNWVRQAPGQGLEWIGRINPYTGDTFYNQKFKGRVTITVDKSTSTAYMELSSLRSEDTAVYYCGRLGSRYWYFDVWGQGTTVTVSS
VL: DVLMTQTPLSSPVTLGQPASISCRSSQSIIHSNGNTYLEWYLQKPGQSPQLLIYKVSNRFSGVPDRFTGSGSGTDFTLKISRVEAEDVGVYYCFQGSHVPWTFGQGTKLEIK
notes: humanized IgG4 (S241P), kappa
B1: the dissociation constant (Kd) (commonly the constant that tells how readily two partners part at equilibrium) in test [1] is 379 pM. Moreover, the dissociation rate constant (koff) (as a rule, the rate constant with which the complex falls apart) in test [2] is 0.0043 s⁻¹. Further, the 50% effective concentration (EC50 (read off the curve)) (usually the concentration needed to bring the measured effect to its halfway point) in test [3] was approximately 0.04 µg/mL.

B2: murine H1M1 monoclonal anti-Cad-11 EC1 antibody (hybridoma H1M1, ATCC PTA-9699) (antibody, V domains shown)
VH: EVQLQQSGPELVKPGASVKISCKASGYSFTGYFMNWVKQSHGKSLEWIGRINPYTGDTFYNQKFKGKATLTVDKSSSTAHMELLSLSSEDSAVYYCGRLGSRYWYFDVWGAGTTVTVSS
VL: DVLMTQTPLSLPVSLGDQASISCRSSQSIIHSNGNTYLEWYLQKPGQSPKLLIYKVSNRFSGVPDRFTGSGSGTDFTLKISRVEAEDLGVYYCFQGSHVPWTFGGGTKLEIK
modifications: Biotinylated when used as the labelled competitor in Example 14; the letters are unchanged.
notes: murine antibody raised against Peptide 4; also called SYN0012; SYN0012/H1M1
B2: the “fold higher binding to Cad-11 than to any of the other cadherins tested” value in test [4] is more than 100 fold.

The record behind these values is patent publication US20110045003A1 (SYNOVEX, published 2011).
